Experiment [1] deals with nucleohistones expressed in the nucleus of mammalian cells. The experiment in a line: radioimmunoassay on paraformaldehyde-acetone-treated cells.
Experiment [2] concerns the target variant of the HLA-Dr antigen expressed on the cell surface of human B-lymphocytes and malignant lymphomas (human). The experiment in a line: indirect cell binding assay.
Experiment [3] has the same target. The experiment in a line: live cell binding assay.
In experiment [4] the target is nucleohistones expressed in the nucleus of mammalian cells. The experiment in a line: cell binding assay (printed as live cell binding assay).
Experiment [5] concerns the target variant of the HLA-Dr antigen expressed on the cell surface of human B-lymphocytes and malignant lymphomas (human). The experiment in a line: live cell radioimmunoassay on Raji cells.

Ends that are not written are not given here.

The molecule “125I-labeled TNT-1 F(ab')2 fragment (antibody)” displayed an immunoreactivity in experiment [1] of over 80%.

Molecule “Lym-1/3B immunoconjugate (from UniProt P60568 53-78)” returned a percent of the antibody binding reactivity retained against unconjugated antibody in experiment [2] of over 75%.

“Lym-1/4A immunoconjugate (from UniProt P60568 125-153)” showed a percent of the antibody binding reactivity retained against unconjugated antibody in experiment [2] of over 75%.

In experiment [2], “Lym-1/4B immunoconjugate (from UniProt P60568 107-153)” came in with a percent of the antibody binding reactivity retained against unconjugated antibody of over 75%.

As to “Lym-1/A3 immunoconjugate (from UniProt P60568 57-92)”, the percent of the antibody binding reactivity retained against unconjugated antibody in experiment [2] was over 75%.

“Lym-1/IL-2 immunoconjugate (from UniProt P60568 21-153)”: the percent of the antibody binding reactivity retained against unconjugated antibody in experiment [3] was over 75%.

“TNT-1/IL-2 immunoconjugate (from UniProt P60568 21-153)” had a percent of the antibody binding reactivity retained against unconjugated antibody in experiment [4] of over 75%.

B1: Lym-1/E6 immunoconjugate (peptide, UniProt P60568 42-58, looked up, part only)
chain: QMILNGINNYKNPKLTR
modifications: also: conjugated to murine antibody Lym-1
B1 showed a percent of the antibody binding reactivity retained against unconjugated antibody in experiment [2] of over 75%.

B2: Lym-1/B1 immunoconjugate (peptide, UniProt P60568 57-78, looked up, part only)
chain: TRMLTFKFYMPKKATELKHLQC
modifications: also: conjugated to murine antibody Lym-1
In turn, B2 came in with a percent of the antibody binding reactivity retained against unconjugated antibody in experiment [2] of over 75%.

B3: Lym-1/3A immunoconjugate (peptide, UniProt P60568 64-78, looked up, part only)
chain: FYMPKKATELKHLQC
modifications: also: conjugated to murine antibody Lym-1
Take B3: in experiment [2], the percent of the antibody binding reactivity retained against unconjugated antibody is over 75%.

B4: 125I-labeled Lym-1 F(ab')2 fragment (antibody, from another filing, mouse IgG2a, V domains shown)
VH: QLKESGPGLVAPSQSLSITCTISGFSLTSYGVHWVRQPPGKGLEWLVVIWSDGSTTYNSALKSRLSISKDNSKSQVFLKMNSLQTDDTAIYYCASHYGSTLAFASWGHGTLVTVSA
VL: DIQMTQSPASLSASVGETVTIICRASVNIYSYLAWYQQKQGKSPQLLVYNAKILAEGVPSRFSGSGSGTQFSLKINSLQPEDFGSYYCQHHYGTFTFGSGTKLEIK
Consider B4, for which, in experiment [5], the percent of radiolabeled preparation bound to cells (immunoreactivity) was determined as 80%.

(Values after US20040156824A1.)
